Assay results from patent US20110294738A1, “PTHR1 RECEPTOR COMPOUNDS” (priority 2008, published 2011).
* marks the point of attachment. Palmitoyl = CCCCCCCCCCCCCCCC(=O)*

Target: PTHR1 receptor
Sequence (P25961 whole entry): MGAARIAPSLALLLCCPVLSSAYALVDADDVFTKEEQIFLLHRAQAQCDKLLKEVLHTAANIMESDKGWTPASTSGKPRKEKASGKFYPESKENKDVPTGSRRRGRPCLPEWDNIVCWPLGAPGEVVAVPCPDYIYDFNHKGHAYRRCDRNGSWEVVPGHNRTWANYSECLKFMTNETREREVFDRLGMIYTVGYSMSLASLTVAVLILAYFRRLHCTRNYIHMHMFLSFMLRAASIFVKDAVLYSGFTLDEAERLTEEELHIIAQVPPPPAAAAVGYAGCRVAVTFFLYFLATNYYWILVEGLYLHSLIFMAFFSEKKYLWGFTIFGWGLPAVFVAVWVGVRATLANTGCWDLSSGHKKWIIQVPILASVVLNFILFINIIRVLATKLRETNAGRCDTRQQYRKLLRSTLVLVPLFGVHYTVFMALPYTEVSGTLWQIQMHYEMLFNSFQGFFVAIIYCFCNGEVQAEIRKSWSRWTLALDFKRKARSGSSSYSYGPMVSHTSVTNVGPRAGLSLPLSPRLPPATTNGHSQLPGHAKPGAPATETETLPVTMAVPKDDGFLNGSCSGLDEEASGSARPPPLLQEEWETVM

| Binder | Fold Shift of EC50 | Inhibition of Maximal Response |
| --- | --- | --- |
| Palmitoyl-GSEKKYLWGFTVF-NH2 (SMILES CCCCCCCCCCCCCCCC(=O)NCC(=O)N[C@@H](CO)C(=O)N[C@@H](CCC(=O)O)C(=O)N[C@@H](CCCCN)C(=O)N[C@@H](CCCCN)C(=O)N[C@@H](Cc1ccc(O)cc1)C(=O)N[C@@H](CC(C)C)C(=O)N[C@@H](Cc1c[nH]c2ccccc12)C(=O)NCC(=O)N[C@@H](Cc1ccccc1)C(=O)N[C@H](C(=O)N[C@H](C(=O)N[C@@H](Cc1ccccc1)C(N)=O)C(C)C)[C@@H](C)O) [Compound 41] | 0.9 fold | 17.7% |
| Palmitoyl-SGRVLATKLRETNA-NH2 (SMILES CCCCCCCCCCCCCCCC(=O)N[C@@H](CO)C(=O)NCC(=O)N[C@@H](CCCNC(=N)N)C(=O)N[C@H](C(=O)N[C@@H](CC(C)C)C(=O)N[C@@H](C)C(=O)N[C@H](C(=O)N[C@@H](CCCCN)C(=O)N[C@@H](CC(C)C)C(=O)N[C@@H](CCCNC(=N)N)C(=O)N[C@@H](CCC(=O)O)C(=O)N[C@H](C(=O)N[C@@H](CC(N)=O)C(=O)N[C@@H](C)C(N)=O)[C@@H](C)O)[C@@H](C)O)C(C)C) [Compound 73] | 0.8 fold | 32.3% |
| Palmitoyl-EIKKSWSRWTLALDFKRKAR-NH2 (SMILES CCCCCCCCCCCCCCCC(=O)N[C@@H](CCC(=O)O)C(=O)N[C@H](C(=O)N[C@@H](CCCCN)C(=O)N[C@@H](CCCCN)C(=O)N[C@@H](CO)C(=O)N[C@@H](Cc1c[nH]c2ccccc12)C(=O)N[C@@H](CO)C(=O)N[C@@H](CCCNC(=N)N)C(=O)N[C@@H](Cc1c[nH]c2ccccc12)C(=O)N[C@H](C(=O)N[C@@H](CC(C)C)C(=O)N[C@@H](C)C(=O)N[C@@H](CC(C)C)C(=O)N[C@@H](CC(=O)O)C(=O)N[C@@H](Cc1ccccc1)C(=O)N[C@@H](CCCCN)C(=O)N[C@@H](CCCNC(=N)N)C(=O)N[C@@H](CCCCN)C(=O)N[C@@H](C)C(=O)N[C@@H](CCCNC(=N)N)C(N)=O)[C@@H](C)O)[C@@H](C)CC) [Compound 96] | 1.1 fold | 7% |
| Palmitoyl-RRLHSTRNYIHM-NH2 (SMILES CCCCCCCCCCCCCCCC(=O)N[C@@H](CCCNC(=N)N)C(=O)N[C@@H](CCCNC(=N)N)C(=O)N[C@@H](CC(C)C)C(=O)N[C@@H](Cc1c[nH]cn1)C(=O)N[C@@H](CO)C(=O)N[C@H](C(=O)N[C@@H](CCCNC(=N)N)C(=O)N[C@@H](CC(N)=O)C(=O)N[C@@H](Cc1ccc(O)cc1)C(=O)N[C@H](C(=O)N[C@@H](Cc1c[nH]cn1)C(=O)N[C@@H](CCSC)C(N)=O)[C@@H](C)CC)[C@@H](C)O) [Compound 15] | 1.7 fold | 1.5% |
| Palmitoyl-NGEVQAEIKKSWSRWTLA-NH2 (SMILES CCCCCCCCCCCCCCCC(=O)N[C@@H](CC(N)=O)C(=O)NCC(=O)N[C@@H](CCC(=O)O)C(=O)N[C@H](C(=O)N[C@@H](CCC(N)=O)C(=O)N[C@@H](C)C(=O)N[C@@H](CCC(=O)O)C(=O)N[C@H](C(=O)N[C@@H](CCCCN)C(=O)N[C@@H](CCCCN)C(=O)N[C@@H](CO)C(=O)N[C@@H](Cc1c[nH]c2ccccc12)C(=O)N[C@@H](CO)C(=O)N[C@@H](CCCNC(=N)N)C(=O)N[C@@H](Cc1c[nH]c2ccccc12)C(=O)N[C@H](C(=O)N[C@@H](CC(C)C)C(=O)N[C@@H](C)C(N)=O)[C@@H](C)O)[C@@H](C)CC)C(C)C) [Compound 98] | 1 fold | 0.5% |
| Palmitoyl-SGRVLATKLRET-NH2 (SMILES CCCCCCCCCCCCCCCC(=O)N[C@@H](CO)C(=O)NCC(=O)N[C@@H](CCCNC(=N)N)C(=O)N[C@H](C(=O)N[C@@H](CC(C)C)C(=O)N[C@@H](C)C(=O)N[C@H](C(=O)N[C@@H](CCCCN)C(=O)N[C@@H](CC(C)C)C(=O)N[C@@H](CCCNC(=N)N)C(=O)N[C@@H](CCC(=O)O)C(=O)N[C@H](C(N)=O)[C@@H](C)O)[C@@H](C)O)C(C)C) [Compound 72] | 0.7 fold | 22.3% |

Continued, values first:

| Fold Shift of EC50 | Inhibition of Maximal Response | Binder |
| --- | --- | --- |
| 0.9 fold | -74.2% | Palmitoyl-LAYFRRLHSTR-NH2 (SMILES CCCCCCCCCCCCCCCC(=O)N[C@@H](CC(C)C)C(=O)N[C@@H](C)C(=O)N[C@@H](Cc1ccc(O)cc1)C(=O)N[C@@H](Cc1ccccc1)C(=O)N[C@@H](CCCNC(=N)N)C(=O)N[C@@H](CCCNC(=N)N)C(=O)N[C@@H](CC(C)C)C(=O)N[C@@H](Cc1c[nH]cn1)C(=O)N[C@@H](CO)C(=O)N[C@H](C(=O)N[C@@H](CCCNC(=N)N)C(N)=O)[C@@H](C)O) [Compound 4] |
| 2.45 fold | 0.0965 | Palmitoyl-RRLHSTRNYIHMHL-NH2 (SMILES CCCCCCCCCCCCCCCC(=O)N[C@@H](CCCNC(=N)N)C(=O)N[C@@H](CCCNC(=N)N)C(=O)N[C@@H](CC(C)C)C(=O)N[C@@H](Cc1c[nH]cn1)C(=O)N[C@@H](CO)C(=O)N[C@H](C(=O)N[C@@H](CCCNC(=N)N)C(=O)N[C@@H](CC(N)=O)C(=O)N[C@@H](Cc1ccc(O)cc1)C(=O)N[C@H](C(=O)N[C@@H](Cc1c[nH]cn1)C(=O)N[C@@H](CCSC)C(=O)N[C@@H](Cc1c[nH]cn1)C(=O)N[C@@H](CC(C)C)C(N)=O)[C@@H](C)CC)[C@@H](C)O) [Compound 16] |
| 4.7 fold | 37.2% | Palmitoyl-KKSWSRWTLALDFKRKAR-NH2 (SMILES CCCCCCCCCCCCCCCC(=O)N[C@@H](CCCCN)C(=O)N[C@@H](CCCCN)C(=O)N[C@@H](CO)C(=O)N[C@@H](Cc1c[nH]c2ccccc12)C(=O)N[C@@H](CO)C(=O)N[C@@H](CCCNC(=N)N)C(=O)N[C@@H](Cc1c[nH]c2ccccc12)C(=O)N[C@H](C(=O)N[C@@H](CC(C)C)C(=O)N[C@@H](C)C(=O)N[C@@H](CC(C)C)C(=O)N[C@@H](CC(=O)O)C(=O)N[C@@H](Cc1ccccc1)C(=O)N[C@@H](CCCCN)C(=O)N[C@@H](CCCNC(=N)N)C(=O)N[C@@H](CCCCN)C(=O)N[C@@H](C)C(=O)N[C@@H](CCCNC(=N)N)C(N)=O)[C@@H](C)O) [Compound 97] |
| 1.9 fold | 22.2% | Palmitoyl-SGRVLATKLRETNAGR-NH2 (SMILES CCCCCCCCCCCCCCCC(=O)N[C@@H](CO)C(=O)NCC(=O)N[C@@H](CCCNC(=N)N)C(=O)N[C@H](C(=O)N[C@@H](CC(C)C)C(=O)N[C@@H](C)C(=O)N[C@H](C(=O)N[C@@H](CCCCN)C(=O)N[C@@H](CC(C)C)C(=O)N[C@@H](CCCNC(=N)N)C(=O)N[C@@H](CCC(=O)O)C(=O)N[C@H](C(=O)N[C@@H](CC(N)=O)C(=O)N[C@@H](C)C(=O)NCC(=O)N[C@@H](CCCNC(=N)N)C(N)=O)[C@@H](C)O)[C@@H](C)O)C(C)C) [Compound 74] |
| 1 fold | 13% | Palmitoyl-LAYFRRLHSTRNYIH-NH2 (SMILES CCCCCCCCCCCCCCCC(=O)N[C@@H](CC(C)C)C(=O)N[C@@H](C)C(=O)N[C@@H](Cc1ccc(O)cc1)C(=O)N[C@@H](Cc1ccccc1)C(=O)N[C@@H](CCCNC(=N)N)C(=O)N[C@@H](CCCNC(=N)N)C(=O)N[C@@H](CC(C)C)C(=O)N[C@@H](Cc1c[nH]cn1)C(=O)N[C@@H](CO)C(=O)N[C@H](C(=O)N[C@@H](CCCNC(=N)N)C(=O)N[C@@H](CC(N)=O)C(=O)N[C@@H](Cc1ccc(O)cc1)C(=O)N[C@H](C(=O)N[C@@H](Cc1c[nH]cn1)C(N)=O)[C@@H](C)CC)[C@@H](C)O) [Compound 5] |
| 1.1 fold | 12.6% | Palmitoyl-RVLATKLRETNAGR-NH2 (SMILES CCCCCCCCCCCCCCCC(=O)N[C@@H](CCCNC(=N)N)C(=O)N[C@H](C(=O)N[C@@H](CC(C)C)C(=O)N[C@@H](C)C(=O)N[C@H](C(=O)N[C@@H](CCCCN)C(=O)N[C@@H](CC(C)C)C(=O)N[C@@H](CCCNC(=N)N)C(=O)N[C@@H](CCC(=O)O)C(=O)N[C@H](C(=O)N[C@@H](CC(N)=O)C(=O)N[C@@H](C)C(=O)NCC(=O)N[C@@H](CCCNC(=N)N)C(N)=O)[C@@H](C)O)[C@@H](C)O)C(C)C) [Compound 75] |
| 1.4 fold | 5.7% | Palmitoyl-GSEKKYLWG-NH2 (SMILES CCCCCCCCCCCCCCCC(=O)NCC(=O)N[C@@H](CO)C(=O)N[C@@H](CCC(=O)O)C(=O)N[C@@H](CCCCN)C(=O)N[C@@H](CCCCN)C(=O)N[C@@H](Cc1ccc(O)cc1)C(=O)N[C@@H](CC(C)C)C(=O)N[C@@H](Cc1c[nH]c2ccccc12)C(=O)NCC(N)=O) [Compound 43] |
| 2.8 fold | 39.4% | Palmitoyl-SGRRLHSTRNYIHMH-NH2 (SMILES CCCCCCCCCCCCCCCC(=O)N[C@@H](CO)C(=O)NCC(=O)N[C@@H](CCCNC(=N)N)C(=O)N[C@@H](CCCNC(=N)N)C(=O)N[C@@H](CC(C)C)C(=O)N[C@@H](Cc1c[nH]cn1)C(=O)N[C@@H](CO)C(=O)N[C@H](C(=O)N[C@@H](CCCNC(=N)N)C(=O)N[C@@H](CC(N)=O)C(=O)N[C@@H](Cc1ccc(O)cc1)C(=O)N[C@H](C(=O)N[C@@H](Cc1c[nH]cn1)C(=O)N[C@@H](CCSC)C(=O)N[C@@H](Cc1c[nH]cn1)C(N)=O)[C@@H](C)CC)[C@@H](C)O) [Compound 17] |
| 1.3 fold | 40.8% | Palmitoyl-GSEKKYLWGFT-NH2 (SMILES CCCCCCCCCCCCCCCC(=O)NCC(=O)N[C@@H](CO)C(=O)N[C@@H](CCC(=O)O)C(=O)N[C@@H](CCCCN)C(=O)N[C@@H](CCCCN)C(=O)N[C@@H](Cc1ccc(O)cc1)C(=O)N[C@@H](CC(C)C)C(=O)N[C@@H](Cc1c[nH]c2ccccc12)C(=O)NCC(=O)N[C@@H](Cc1ccccc1)C(=O)N[C@H](C(N)=O)[C@@H](C)O) [Compound 42] |
